Paper PMC8791637

Legend:
Focal adhesion kinase [1] = target: Focal adhesion kinase (UniProt Q05397)
N-WASP = N-WASP (UniProt O00401)
phosphorylated Nephrin = phosphorylated Nephrin (UniProt O60500)
Nck = Nck (UniProt P16333)
Focal adhesion kinase [2] = target: Focal adhesion kinase (UniProt Q05397); remark: listed apart in the source
His6-sumo-kindlin = His6-sumo-kindlin (UniProt Q96AC1)
Sequence of His6-sumo-kindlin (UniProt Q96AC1) (Q96AC1 whole entry): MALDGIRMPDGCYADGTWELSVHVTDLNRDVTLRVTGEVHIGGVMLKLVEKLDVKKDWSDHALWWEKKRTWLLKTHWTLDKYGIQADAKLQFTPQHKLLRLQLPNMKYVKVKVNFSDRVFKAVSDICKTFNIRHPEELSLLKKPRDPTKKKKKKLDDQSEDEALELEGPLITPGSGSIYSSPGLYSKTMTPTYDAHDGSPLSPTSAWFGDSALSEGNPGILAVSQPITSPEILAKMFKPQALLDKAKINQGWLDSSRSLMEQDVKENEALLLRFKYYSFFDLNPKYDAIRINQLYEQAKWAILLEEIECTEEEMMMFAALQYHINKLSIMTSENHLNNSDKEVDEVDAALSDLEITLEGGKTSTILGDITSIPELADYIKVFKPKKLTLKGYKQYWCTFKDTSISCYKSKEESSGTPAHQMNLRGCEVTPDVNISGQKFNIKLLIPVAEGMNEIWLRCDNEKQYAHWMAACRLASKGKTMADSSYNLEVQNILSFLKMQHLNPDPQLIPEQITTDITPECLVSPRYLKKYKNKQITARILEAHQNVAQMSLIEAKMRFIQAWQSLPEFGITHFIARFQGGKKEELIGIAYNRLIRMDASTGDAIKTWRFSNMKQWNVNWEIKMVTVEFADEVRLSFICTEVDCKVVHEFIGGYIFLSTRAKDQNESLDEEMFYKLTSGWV

Sequence of His6-sumo-kindlin (from UniProt Q96AC1 1-680) (natural protein) (Q96AC1 whole entry): as above
Sequence of phosphorylated Nephrin (O60500 23-1241): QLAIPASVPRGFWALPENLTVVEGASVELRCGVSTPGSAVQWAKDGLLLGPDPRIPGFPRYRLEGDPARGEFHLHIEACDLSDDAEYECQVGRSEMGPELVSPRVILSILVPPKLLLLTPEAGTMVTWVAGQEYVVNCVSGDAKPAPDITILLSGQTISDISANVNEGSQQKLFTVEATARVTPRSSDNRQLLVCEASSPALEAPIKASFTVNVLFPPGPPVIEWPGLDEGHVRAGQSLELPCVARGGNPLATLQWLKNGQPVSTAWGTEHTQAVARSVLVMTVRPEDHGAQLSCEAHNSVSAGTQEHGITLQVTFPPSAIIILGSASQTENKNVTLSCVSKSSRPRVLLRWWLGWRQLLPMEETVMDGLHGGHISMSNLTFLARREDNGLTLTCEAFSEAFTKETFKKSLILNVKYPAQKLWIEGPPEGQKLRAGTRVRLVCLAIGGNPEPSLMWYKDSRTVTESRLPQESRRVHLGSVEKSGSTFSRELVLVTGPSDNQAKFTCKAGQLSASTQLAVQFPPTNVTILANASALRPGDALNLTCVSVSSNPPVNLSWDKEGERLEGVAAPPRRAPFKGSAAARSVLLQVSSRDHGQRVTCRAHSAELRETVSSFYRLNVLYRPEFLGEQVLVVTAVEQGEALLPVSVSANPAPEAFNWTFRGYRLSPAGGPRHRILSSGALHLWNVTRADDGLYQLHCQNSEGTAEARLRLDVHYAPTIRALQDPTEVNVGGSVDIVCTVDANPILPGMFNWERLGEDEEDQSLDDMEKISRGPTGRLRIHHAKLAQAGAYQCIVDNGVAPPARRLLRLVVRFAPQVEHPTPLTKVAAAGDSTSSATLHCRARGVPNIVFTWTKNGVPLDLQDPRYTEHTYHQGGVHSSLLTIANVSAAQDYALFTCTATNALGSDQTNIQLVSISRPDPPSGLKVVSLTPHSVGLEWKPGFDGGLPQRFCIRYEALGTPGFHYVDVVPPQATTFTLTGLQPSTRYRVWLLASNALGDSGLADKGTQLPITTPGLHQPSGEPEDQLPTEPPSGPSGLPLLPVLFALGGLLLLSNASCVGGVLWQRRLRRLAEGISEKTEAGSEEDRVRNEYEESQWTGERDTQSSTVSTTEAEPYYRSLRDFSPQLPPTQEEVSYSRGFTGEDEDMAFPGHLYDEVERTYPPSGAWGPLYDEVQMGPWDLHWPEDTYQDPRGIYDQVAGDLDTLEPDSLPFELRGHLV
Sequence of β1 integrin cytoplasmic tail-GFP (P05556 752-798): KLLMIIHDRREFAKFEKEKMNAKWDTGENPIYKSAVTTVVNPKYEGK
Sequence of Focal adhesion kinase (from UniProt Q05397 1-1052) (enzyme) (Q05397 whole entry): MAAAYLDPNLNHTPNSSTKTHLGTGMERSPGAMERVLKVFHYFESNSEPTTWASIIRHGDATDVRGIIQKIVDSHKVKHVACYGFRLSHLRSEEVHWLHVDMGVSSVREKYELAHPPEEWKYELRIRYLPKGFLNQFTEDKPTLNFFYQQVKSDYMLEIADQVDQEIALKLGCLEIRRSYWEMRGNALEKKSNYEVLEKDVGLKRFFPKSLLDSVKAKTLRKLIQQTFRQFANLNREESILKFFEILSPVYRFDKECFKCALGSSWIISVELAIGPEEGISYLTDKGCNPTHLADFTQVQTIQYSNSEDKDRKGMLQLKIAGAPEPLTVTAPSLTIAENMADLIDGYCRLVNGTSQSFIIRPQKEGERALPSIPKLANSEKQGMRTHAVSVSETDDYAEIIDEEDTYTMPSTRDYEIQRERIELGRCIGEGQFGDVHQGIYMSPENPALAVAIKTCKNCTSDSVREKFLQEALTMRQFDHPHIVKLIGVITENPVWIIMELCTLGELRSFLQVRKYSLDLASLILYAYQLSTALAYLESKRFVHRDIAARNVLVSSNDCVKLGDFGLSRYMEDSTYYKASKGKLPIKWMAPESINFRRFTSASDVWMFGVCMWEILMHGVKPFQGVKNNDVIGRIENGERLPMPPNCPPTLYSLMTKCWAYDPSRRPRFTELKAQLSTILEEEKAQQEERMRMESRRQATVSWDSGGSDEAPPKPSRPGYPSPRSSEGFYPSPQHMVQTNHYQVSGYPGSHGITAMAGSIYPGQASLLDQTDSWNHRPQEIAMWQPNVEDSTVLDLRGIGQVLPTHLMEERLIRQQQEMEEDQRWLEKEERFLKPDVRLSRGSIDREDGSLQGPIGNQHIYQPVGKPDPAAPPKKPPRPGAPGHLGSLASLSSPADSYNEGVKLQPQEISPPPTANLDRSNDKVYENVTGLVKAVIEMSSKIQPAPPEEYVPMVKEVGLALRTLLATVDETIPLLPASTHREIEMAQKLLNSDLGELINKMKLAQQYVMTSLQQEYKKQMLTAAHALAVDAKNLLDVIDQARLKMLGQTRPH
Sequence of Focal adhesion kinase (UniProt Q05397) (Q05397 whole entry): as above
Sequence of N-WASP (O00401 whole entry): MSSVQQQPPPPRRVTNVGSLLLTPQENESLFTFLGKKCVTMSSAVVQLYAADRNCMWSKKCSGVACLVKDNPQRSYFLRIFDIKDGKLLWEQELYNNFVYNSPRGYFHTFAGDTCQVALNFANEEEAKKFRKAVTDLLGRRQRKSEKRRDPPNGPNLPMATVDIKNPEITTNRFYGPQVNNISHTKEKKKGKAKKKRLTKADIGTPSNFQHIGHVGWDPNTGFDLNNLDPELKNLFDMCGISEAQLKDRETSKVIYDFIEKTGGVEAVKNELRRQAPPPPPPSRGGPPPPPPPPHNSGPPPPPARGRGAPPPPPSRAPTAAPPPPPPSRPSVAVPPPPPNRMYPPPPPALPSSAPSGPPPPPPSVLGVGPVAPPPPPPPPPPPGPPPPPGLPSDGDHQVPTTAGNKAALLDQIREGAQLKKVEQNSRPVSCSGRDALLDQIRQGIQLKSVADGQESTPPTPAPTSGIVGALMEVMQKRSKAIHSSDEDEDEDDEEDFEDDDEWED
Sequence of Paxillin (P49023 whole entry): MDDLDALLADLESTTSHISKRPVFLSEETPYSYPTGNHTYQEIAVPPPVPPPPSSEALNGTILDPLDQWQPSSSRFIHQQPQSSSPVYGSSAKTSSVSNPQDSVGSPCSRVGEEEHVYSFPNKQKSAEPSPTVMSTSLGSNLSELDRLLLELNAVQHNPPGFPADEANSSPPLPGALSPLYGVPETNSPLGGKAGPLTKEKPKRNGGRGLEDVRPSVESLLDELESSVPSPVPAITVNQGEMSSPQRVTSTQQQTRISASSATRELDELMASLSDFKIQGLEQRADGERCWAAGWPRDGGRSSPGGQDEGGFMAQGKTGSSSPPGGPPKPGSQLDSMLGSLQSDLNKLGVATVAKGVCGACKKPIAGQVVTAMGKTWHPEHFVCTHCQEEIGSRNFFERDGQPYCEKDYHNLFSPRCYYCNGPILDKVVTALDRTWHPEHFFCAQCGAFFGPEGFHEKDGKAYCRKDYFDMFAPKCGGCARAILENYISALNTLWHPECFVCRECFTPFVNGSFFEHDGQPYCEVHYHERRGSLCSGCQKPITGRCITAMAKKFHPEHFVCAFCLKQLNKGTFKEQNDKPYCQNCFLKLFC

Focal adhesion kinase (from UniProt Q05397 1-1052) (enzyme)
solution turbidity (absorbance at 350 nm) with increasing concentrations of FAK; concentration from which turbidity rises (Focal adhesion kinase [1]): 100 nM

His6-sumo-kindlin (from UniProt Q96AC1 1-680) (natural protein)
kindlin partition coefficient (PC) in droplets of 5 uM each phosphorylated Nephrin, Nck and N-WASP with 1 uM kindlin (10% Alexa546), lacking pCas (N-WASP): 1
kindlin partition coefficient (PC) in droplets of 5 uM each phosphorylated Nephrin, Nck and N-WASP with 1 uM kindlin (10% Alexa546), lacking pCas (phosphorylated Nephrin): 1
kindlin partition coefficient (PC) in droplets of 5 uM each phosphorylated Nephrin, Nck and N-WASP with 1 uM kindlin (10% Alexa546), lacking pCas (Nck): 1

Paxillin (from UniProt P49023 1-591) (natural protein)
FAK enrichment (partitioning) in droplets, 1 uM FAK with 1 uM paxillin against 1 uM FAK alone (Focal adhesion kinase [2]): 2 fold

β1 integrin cytoplasmic tail-GFP (from UniProt P05556 752-798) (domain or fragment)
integrin-GFP partition coefficient (PC) in droplets of 1 uM each pCas, Nck, N-WASP, FAK, paxillin and β1 integrin tail with 1 uM kindlin (PC = 1.2 without kindlin) (His6-sumo-kindlin): 3
